Article PMC13189363
“And” between values parts separate entries of the source, which are not always exact repeats. Identical values can stand only once.

Key:
[1] = target: HerA from Bacillus ap. HMH5848 (Bacillus ap. HMH5848); experiment: cryo-EM structure
[2] = target: DUF4297 from Bacillus ap. HMH5848 (Bacillus ap. HMH5848); experiment: cryo-EM structure
[3] = target: DUF4297 from Bacillus ap. HMH5848 (Bacillus ap. HMH5848); experiment: mass photometry

## HerA from Bacillus ap. HMH5848 (enzyme)
[1]
  stoichiometry N: 6

## DUF4297 from Bacillus ap. HMH5848 (enzyme)
[2]
  stoichiometry N: 12 and 4 and 6
[3]
  stoichiometry N: 6 and 12 and 14
